This passage reports Kd and IC50 results from the Immune Epitope Database (IEDB).

By Kd is commonly meant the constant that tells how readily two partners part at equilibrium. The IC50 is the midpoint of a concentration-inhibition curve. A low value points to inhibition by little substance.

The target in one test is HLA-A*26:01. Put plainly: IEDB peptide-MHC binding, purified MHC/competitive/radioactivity; filed as Kd, often an IC50 or EC50 that approximates it; ≥ and ≤ were set here for values at or beyond the usual limits of such assays.
Another test has as its target HLA-A*01:01. The test is described as above.
Test [1] concerns the target HLA-A*02:01. The test can be described thus: IEDB peptide-MHC binding, purified MHC/competitive/fluorescence; ≥ and ≤ were set here for values at or beyond the usual limits of such assays.
The target in the next test is HLA-A*23:01. The test can be described thus: IEDB peptide-MHC binding, purified MHC/competitive/radioactivity; filed as Kd, often an IC50 or EC50 that approximates it; ≥ and ≤ were set here for values at or beyond the usual limits of such assays.
For another test, the target named is HLA-A*30:02. Described as above.
Test [2] has as its target HLA-A*02:01. Put plainly: IEDB peptide-MHC binding, purified MHC/direct/fluorescence; filed as Kd, often an IC50 or EC50 that approximates it; ≥ and ≤ were set here for values at or beyond the usual limits of such assays. As to conditions: source organism: Giardia intestinalis.
A further test deals with HLA-A*24:02. Put plainly: IEDB peptide-MHC binding, purified MHC/competitive/radioactivity; filed as Kd, often an IC50 or EC50 that approximates it; ≥ and ≤ were set here for values at or beyond the usual limits of such assays.
A further test deals with HLA-A*03:01. The test can be described thus: IEDB peptide-MHC binding, purified MHC/direct/fluorescence; filed as Kd, often an IC50 or EC50 that approximates it; ≥ and ≤ were set here for values at or beyond the usual limits of such assays. As to conditions: source organism: Corynebacterium jeikeium.
Another test deals with HLA-A*02:02. The test can be described thus: IEDB peptide-MHC binding, purified MHC/competitive/radioactivity; filed as Kd, often an IC50 or EC50 that approximates it; ≥ and ≤ were set here for values at or beyond the usual limits of such assays.
The target of a further test is HLA-A*02:03. The description is as above.
The target of another test is HLA-A*02:06. The test is described as above.
The mark [3] stands for this setting: source organism: Dengue virus 1 Brazil/97-11/1997.
Where [4] appears, read: source organism: Dengue virus 4 Philippines/H241/1956.
The mark [5] stands for this setting: source organism: Dengue virus 3 Martinique/1243/1999.
[6] abbreviates: source organism: Dengue virus 2 Jamaica/1409/1983.
[7] abbreviates: source organism: Zaire ebolavirus.
Setting [8] is: source organism: Mammarenavirus brazilense.
[9] abbreviates: source organism: Mammarenavirus guanaritoense.
Where [10] appears, read: source organism: Vaccinia virus WR.
Where [11] appears, read: source organism: SARS coronavirus Tor2.

On to ETEPPFGESY, for which the equilibrium dissociation constant (Kd) came to 0.134 µM with HLA-A*26:01 (setting [3]) and 0.00528 µM in the test with HLA-A*01:01 (setting [3]).

DTVTYECPL: the dissociation constant (Kd) in the test with HLA-A*26:01 (setting [4]) was found to be 6.13 µM.

As to ITVDDDGTM, in the test with HLA-A*26:01 (setting [5]), the dissociation constant Kd was determined as 13.9 µM.

Regarding DTITYKCPL, in the test with HLA-A*26:01 (setting [6]), the Kd stood at 3.38 µM.

As to PRCRYVHKV, the IC50 with HLA-A*02:01 [1] (setting [7]) is no less than 3070 µM.

VFTTNIWLK: the Kd in the test with HLA-A*23:01 (setting [6]) was no less than 30.9 µM.

Take LTFIKTTLSL: the dissociation constant Kd with HLA-A*26:01 (setting [3]) worked out at 11.4 µM.

For GVAGLITGG, the concentration for half-maximal inhibition (IC50) in the test with HLA-A*02:01 [1] (setting [7]) was no less than 77 µM.

In the case of NTYKRSGIM, the Kd with HLA-A*26:01 (setting [3]) amounted to 6.55 µM.

As to MSYTMCSGKF, the Kd worked out at 1.51 µM with HLA-A*26:01 (setting [4]), 0.0818 µM in the test with HLA-A*30:02 (setting [4]) and 7.72 µM in the test with HLA-A*01:01 (setting [4]).

For the sequence ATLLAVSGVY, the dissociation constant (Kd) was determined as 2.29 µM in the test with HLA-A*26:01 (setting [3]), 0.00247 µM with HLA-A*30:02 (setting [3]) and 4.92 µM with HLA-A*01:01 (setting [3]).

KATLTEGVY: the dissociation constant (Kd) with HLA-A*30:02 (setting [4]) is 0.0401 µM.

Turning to YNIDKIKDV, the IC50 in the test with HLA-A*02:01 [1] (source organism: Vaccinia virus) came out at 9.18 µM.

As to GVPLLAMGCY, the equilibrium dissociation constant (Kd) with HLA-A*30:02 (setting [4]) turned out to be 0.105 µM.

As for HTLIMIGSNA, the Kd in the test with HLA-A*26:01 (setting [5]) is no less than 22.7 µM.

In turn, GLAGLQTDV came in with a Kd with HLA-A*02:01 [2] of 0.175 µM.

As for LFQLIFFLT, the Kd with HLA-A*26:01 (setting [8]) is no less than 77.9 µM; with HLA-A*30:02 (setting [8]) it was 6.09 µM; in the test with HLA-A*24:02 (setting [8]) it was no less than 22.3 µM; in the test with HLA-A*01:01 (setting [8]), 3.33 µM.

Consider HLTTLATIS, for which the IC50 with HLA-A*02:01 [1] (setting [7]) worked out at 69.8 µM.

VFHELPSLC: the dissociation constant Kd with HLA-A*26:01 (setting [9]) is no less than 77.9 µM; in the test with HLA-A*01:01 (setting [9]) it was no less than 78.1 µM.

Consider QYIYMGEPLE, for which the Kd with HLA-A*24:02 (setting [6]) was found to be 9.09 µM.

With SWILRNPGF, the Kd is 0.496 µM with HLA-A*23:01 (setting [4]) and 0.369 µM with HLA-A*24:02 (setting [4]).

As to FMWAHPGKK, the Kd with HLA-A*03:01 came to 0.039 µM.

On to LWMASVEPHW, for which the results for the dissociation constant Kd with HLA-A*23:01 (setting [3]) and with HLA-A*24:02 (setting [3]) were 0.13 µM and 0.231 µM, respectively.

Turning to FIMRNFLRSI, the dissociation constant (Kd) in the test with HLA-A*02:02 (setting [10]) stood at 0.0277 µM; with HLA-A*02:03 (setting [10]), 0.000118 µM; with HLA-A*02:06 (setting [10]), 0.000447 µM.

Consider LAYVVIGLLF, for which the Kd with HLA-A*23:01 (setting [3]) was 0.0364 µM.

As to IISYIILFIL, the values for the Kd with HLA-A*02:02 (setting [10]), with HLA-A*02:03 (setting [10]) and with HLA-A*02:06 (setting [10]) were 0.0662 µM, 0.489 µM and 3.93 µM, respectively.

As to GALYLGHSA, the Kd in the test with HLA-A*02:02 (setting [10]) worked out at 7.5 µM; with HLA-A*02:03 (setting [10]) it was 1.9 µM; with HLA-A*02:06 (setting [10]), 0.792 µM.

Take LVIGFLFLA: the dissociation constant Kd with HLA-A*02:02 (setting [11]) is 0.00738 µM; with HLA-A*02:03 (setting [11]), 0.0196 µM; in the test with HLA-A*02:06 (setting [11]), no more than 0.0001 µM.

For the sequence ALEPRKEIDV, the Kd is 8.37 µM in the test with HLA-A*02:02 (setting [10]), 11.2 µM with HLA-A*02:03 (setting [10]) and no less than 63.3 µM with HLA-A*02:06 (setting [10]).

On to LIGNENYLDY, for which the Kd with HLA-A*01:01 (setting [3]) is 6.08 µM.

For the sequence KYTDRKWCF, the dissociation constant Kd with HLA-A*23:01 (setting [5]) was 0.18 µM; in the test with HLA-A*24:02 (setting [5]) it was 0.138 µM.

As to CTIVDSMII, the equilibrium dissociation constant (Kd) with HLA-A*02:02 (setting [10]) turned out to be 13.9 µM; with HLA-A*02:03 (setting [10]), 1.79 µM; in the test with HLA-A*02:06 (setting [10]), 4.58 µM.

Turning to YAGTIKESL, the dissociation constant Kd with HLA-A*02:02 (setting [10]) was 2.07 µM; with HLA-A*02:03 (setting [10]) it was 2.49 µM; with HLA-A*02:06 (setting [10]) it was 3.3 µM.

With EVNDTHYTV, the Kd with HLA-A*02:02 (setting [10]) turned out to be 0.133 µM; in the test with HLA-A*02:03 (setting [10]), 0.115 µM; in the test with HLA-A*02:06 (setting [10]) it was 4.78 µM.

As to TWVTYGTCTT, the Kd with HLA-A*24:02 (source organism: Dengue virus 2 Peru/IQT2913/1996) is no less than 70.3 µM.

Consider SKKEGGAMY, for which the dissociation constant (Kd) with HLA-A*30:02 (setting [6]) was no less than 76.9 µM.

On to VHTWTEQYKF, for which the Kd with HLA-A*23:01 (setting [6]) came to 0.889 µM; in the test with HLA-A*24:02 (setting [6]) it was 3.78 µM.

For NTNQGNILM, the dissociation constant (Kd) was found to be 1.7 µM with HLA-A*02:02 (setting [10]), 1.15 µM with HLA-A*02:03 (setting [10]) and 5.94 µM with HLA-A*02:06 (setting [10]).

With QLYTISSESL, the Kd in the test with HLA-A*02:02 (setting [10]) was found to be 0.0717 µM; with HLA-A*02:03 (setting [10]), 0.245 µM; with HLA-A*02:06 (setting [10]), 4.75 µM.

GMMQNDYGGM: the dissociation constant Kd with HLA-A*02:02 (setting [10]) was 0.103 µM; in the test with HLA-A*02:03 (setting [10]), 0.589 µM; with HLA-A*02:06 (setting [10]) it was 12 µM.

For the sequence YIFFASFYYI, the Kd with HLA-A*02:02 (setting [11]) is 0.00046 µM; in the test with HLA-A*02:03 (setting [11]), 0.0598 µM; with HLA-A*02:06 (setting [11]) it was 0.0008 µM.

For the sequence LLGLILFVL, the Kd in the test with HLA-A*02:02 (setting [10]) stood at 0.266 µM; with HLA-A*02:03 (setting [10]), 1.86 µM; in the test with HLA-A*02:06 (setting [10]), 8.14 µM.

In the case of ETLFGSYIT, the dissociation constant Kd with HLA-A*02:02 (setting [10]) is 2.49 µM; with HLA-A*02:03 (setting [10]) it was 2.44 µM; with HLA-A*02:06 (setting [10]), 15.3 µM.

Consider RTRLYDYFT, for which the figures for the Kd with HLA-A*02:02 (setting [10]), in the test with HLA-A*02:03 (setting [10]) and in the test with HLA-A*02:06 (setting [10]) were 7.1 µM, 3.05 µM and no less than 48.5 µM, respectively.

SAEVERLMEL: the dissociation constant Kd was 1.28 µM in the test with HLA-A*02:02 (setting [10]), 2.5 µM in the test with HLA-A*02:03 (setting [10]) and 1.25 µM with HLA-A*02:06 (setting [10]).
